For data set [1], the target named is T1, ArcB (ornithine transcarbamoylase, OTC) (Lactococcus lactis, UniProt P0C2U0).
T1 construct: expressed in L. lactis NZ9000; hexamer (245 kDa)
T1 sequence (P0C2U0 1-354): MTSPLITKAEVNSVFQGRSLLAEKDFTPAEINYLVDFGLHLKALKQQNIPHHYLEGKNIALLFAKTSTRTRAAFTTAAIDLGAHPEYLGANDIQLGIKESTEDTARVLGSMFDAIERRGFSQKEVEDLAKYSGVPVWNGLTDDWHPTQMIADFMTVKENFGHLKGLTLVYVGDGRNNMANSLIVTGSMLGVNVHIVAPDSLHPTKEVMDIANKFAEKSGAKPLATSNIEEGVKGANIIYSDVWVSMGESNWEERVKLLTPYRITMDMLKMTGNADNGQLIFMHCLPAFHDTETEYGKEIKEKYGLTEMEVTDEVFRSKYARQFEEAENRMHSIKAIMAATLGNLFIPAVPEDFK
The data set can be described thus: citrulline formation, COLDER assay (A540). The settings on record: read-out: % inhibition at 10 mM. Format: biochemical.

Data set [2] has as its target T2, ArcA (arginine deiminase, ADI) (Lactococcus lactis, UniProt P58013).
T2 construct: expressed in L. lactis NZ9000; tetramer (194 kDa)
T2 sequence (P58013 1-410): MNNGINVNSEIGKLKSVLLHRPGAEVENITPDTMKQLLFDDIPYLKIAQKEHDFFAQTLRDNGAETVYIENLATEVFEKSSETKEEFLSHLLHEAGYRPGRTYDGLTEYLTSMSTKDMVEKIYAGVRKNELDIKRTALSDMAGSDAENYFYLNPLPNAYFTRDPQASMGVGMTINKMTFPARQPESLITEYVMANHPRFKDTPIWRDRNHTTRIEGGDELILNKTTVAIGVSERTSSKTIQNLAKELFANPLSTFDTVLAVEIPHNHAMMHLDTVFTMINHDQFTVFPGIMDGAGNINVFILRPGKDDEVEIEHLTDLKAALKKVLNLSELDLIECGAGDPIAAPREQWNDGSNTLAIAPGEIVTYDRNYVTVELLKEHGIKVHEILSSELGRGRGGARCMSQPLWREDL
The data set can be described thus: citrulline formation, COLDER assay (A540); Michaelis-Menten with uncompetitive substrate inhibition. Format: biochemical. The settings on record: 3.2 nM ArcA, 50 mM KPi pH 7.0, 30 °C, n = 1.

Data set [3] deals with T3, ArcC1 (carbamate kinase, CK) (Lactococcus lactis, UniProt Q9CE16).
T3 construct: expressed in L. lactis NZ9000; dimer (73 kDa)
T3 sequence (Q9CE16 1-314): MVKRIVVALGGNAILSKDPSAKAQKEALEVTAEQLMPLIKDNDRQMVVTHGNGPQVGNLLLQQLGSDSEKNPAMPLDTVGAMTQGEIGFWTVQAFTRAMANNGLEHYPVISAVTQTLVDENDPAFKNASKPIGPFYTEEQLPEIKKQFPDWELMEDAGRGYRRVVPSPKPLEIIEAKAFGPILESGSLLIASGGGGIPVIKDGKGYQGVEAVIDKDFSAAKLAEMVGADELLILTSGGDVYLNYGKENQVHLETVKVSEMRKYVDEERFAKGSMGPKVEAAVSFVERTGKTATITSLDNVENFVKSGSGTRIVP
Put plainly: ATP formation by ATPlite luminescence. Type of data set: biochemical. Conditions: read-out: % inhibition at 10 mM. In general terms: ATP-based viability assays read luminescence as a measure of living cells.

Data set [4] deals with T1, ArcB (ornithine transcarbamoylase, OTC). The data set can be described thus: citrulline formation, COLDER assay (A540). The settings on record: citrulline-forming direction; 5 mM carbamoyl-Pi; 50 mM KPi pH 7.0; 30 °C. Format: biochemical.
The target of data set [5] is T3, ArcC1 (carbamate kinase, CK). The data set can be described thus: ATP formation by ATPlite luminescence. Format: biochemical. Conditions: 5 mM carbamoyl-Pi, 5 mM Mg-ADP; 50 mM KPi pH 7.0; 30 °C.
Data set [6] has as its target T2, ArcA (arginine deiminase, ADI). Put plainly: citrulline formation, COLDER assay (A540). Format: biochemical. The settings on record: read-out: % inhibition at 10 mM.
Substrate in data set [7]: N=C(N)NCCC[C@H](N)C(=O)O
The data set can be described thus: citrulline formation, COLDER assay (A540). Type of data set: biochemical, Lactococcus lactis. Conditions: 50 mM KPi pH 7.0, 30 °C, 42 nM ArcA, arginine up to 480 µM.

Substrate in data set [8]: NC(=O)OP(=O)(O)O
Put plainly: citrulline formation, COLDER assay (A540). Conditions: citrulline-forming direction, 5 mM ornithine, 50 mM KPi pH 7.0, 30 °C. Type of data set: biochemical, Lactococcus lactis.

Substrate in data set [9]: N=C(N)NCCC[C@H](N)C(=O)O
Put plainly: purified protein. Type of data set: biochemical, Lactococcus lactis. The settings on record: external arginine, 10 mM internal ornithine, DOPE:DOPG:DOPC 50:38:12, 50 mM KPi pH 7.0, 30 °C, labelled compound.

Substrate in data set [10]: NC(=O)NCCC[C@H](N)C(=O)O
Put plainly: purified protein. Type of data set: biochemical, Lactococcus lactis. The settings on record: internal citrulline as counter-substrate, 25 µM external arginine, membrane potential −120 mV (valinomycin), pH 7.0, 30 °C.

Substrate in data set [11]: NCCC[C@H](N)C(=O)O
Put plainly: purified protein. The settings on record: internal ornithine as counter-substrate, 25 µM external arginine, 50 mM KPi pH 7.0, 30 °C.

Substrate in data set [12]: Nc1ncnc2c1ncn2[C@@H]1O[C@H](COP(=O)(O)OP(=O)(O)O)[C@@H](O)[C@H]1O
The data set can be described thus: ATP/ADP ratio by PercevalHR fluorescence, pH-corrected with pyranine. Type of data set: biochemical, Lactococcus lactis. Conditions: 5 mM carbamoyl-Pi, 50 mM KPi pH 7.0, 30 °C.

Substrate in data set [13]: NC(=O)OP(=O)(O)O
Described as above. Type of data set: biochemical, Lactococcus lactis. Conditions: 5 mM Mg-ADP, 50 mM KPi pH 7.0, 30 °C.

With `N=C(N)NCCC[C@H](N)C(=O)O` [L-arginine], the inhibition at 10000 µM in data set [1] was found to be 25%. Further, in [2], the “K I” value worked out at 3.2 ± 0.4 mM.
For `NC(=O)NCCC[C@H](N)C(=O)O` [L-citrulline], the inhibition at 10000 µM in [3] is 40 to 50%.
With `NCCC[C@H](N)C(=O)O` [L-ornithine], the Michaelis-Menten constant (Km) in data set [4] was 700 ± 200 µM. Besides, the “% inhibition” value in data set [5] is “ornithine was slightly inhibitory”. For the same molecule, in [6], the inhibition at 10000 µM was found to be 30%.

B1: ArcA (arginine deiminase, ADI) (Lactococcus lactis subsp. lactis Il1403) (protein)
chain: T2 sequence (P58013 1-410)
notes: expressed in L. lactis NZ9000; tetramer (194 kDa)
On to B1, for which, in data set [7], the Km was found to be 34.5 ± 6.6 µM and the kcat turned out to be 3.3 ± 0.2 s⁻¹.

B2: ArcB (ornithine transcarbamoylase, OTC) (Lactococcus lactis subsp. lactis Il1403) (protein)
chain: T1 sequence (P0C2U0 1-354)
notes: expressed in L. lactis NZ9000; hexamer (245 kDa)
Consider B2, for which, in data set [8], the Km was determined as 2700 ± 400 µM and the kcat is 565 ± 45 s⁻¹.

B3: ArcD2 (arginine/ornithine antiporter, AOA) (Lactococcus lactis subsp. lactis Il1403) (protein)
chain: MENKKTKGISLFALLAIIISGAIGGGVFNLANDLANGSTPGGVMISWLFIGFGIFMLVLSFNRLITIRPKLSGVSDYAREGFGDFIGFLSGWGYWISAWTGTIGFAVLMMTSADYFFPSKFANSNGSLTVLSVIIVSIISWILMFLVDRGVETAALVNAVVMIAKLIPLVVFSITGIILFKADVFTQHFWQTFTSNLAADGSVKSLVWHAMTAGGLLDQIKGSLMVMVWVFVGIEGAAMMGNRAKKKSDTAKATIIGLAVLLVIYVLLSLLPYGYMDQASLANVKAPGLVYILNEMVGGWGGSLMAIGLMISLLGAWLSWTMLPVEATQQLAEKKLLPSWFGKLNKYHAPSNSLLITQLMIQIFIIITYFVANAYNVFIYMATAVIMICYALVGAYLLKIGIKEGSIKNILIGFFTFAFQALALYLSGWQYVWLAMILYTIGFILFIKAKKESRQAISVKEWAGMFIVALLGVLAILVLICGAKSGTALDLRGLLGY
notes: expressed in L. lactis JP9000; reconstituted in proteoliposomes; monomer (53 kDa) in DDM
As to B3, the results for the Km in “purified protein [9]”, in the data set “purified protein [10]” and in the data set “purified protein [11]” were 6.0 ± 0.7 µM, 6000 ± 2100 µM and 2500 ± 700 µM, respectively. For the same molecule, the kcat came out at 0.11 ± 0.005 s⁻¹ in “purified protein [9]” and 0.09 ± 0.009 s⁻¹ in “purified protein [11]”.

B4: ArcC1 (carbamate kinase, CK) (Lactococcus lactis subsp. lactis Il1403) (protein)
chain: T3 sequence (Q9CE16 1-314)
notes: expressed in L. lactis NZ9000; dimer (73 kDa)
For B4, the figures for the Km in data set [12] and in data set [13] were 1600 ± 700 µM and 600 ± 200 µM, respectively. Further, the kcat in data set [12] is 190 ± 15 s⁻¹; in [13] it was 200 ± 20 s⁻¹.

By inhibition is commonly meant how much of the control response was suppressed. The Km is the substrate concentration at which the rate is half of its maximum. Usually kcat stands for the maximal rate divided by the concentration of active sites.

The values are drawn from article PMC7818446, “Enzymology of the pathway for ATP production by arginine breakdown” (The Febs Journal, 2020).
